Measured values: US20100062980A1, “THERAPEUTIC USES OF BETA-ANTAGONISTS” (priority 2006, published 2010)

Tested on: Swiss albino male mice
Assay type: in vivo
Conditions: mouse, in vivo, 2.5 mg/kg
Excerpt: Swiss albino male mice (˜20 g) were used for the in vivo toxicity study. Male Sprague-Dawley (SD) rats were used for electrocardiogram (ECG) monitoring (3-4 weeks old, ˜80-100 g) and the Langendorff isolated perfused heart experiments (8 weeks old, ˜250 g). Animals were acquired from the university Laboratory Animal Center (LAC) and were acclimatized to the Animal Holding Unit surroundings for at least 3 days prior to the experiments. Animals were kept under standard conditions with food and water available ad lib. All animal experiments were conducted according to the protocol (776/05a) approved by the Institutional Animal Care and Use Committee (IACUC) of the National University of Singapore.
The protein was dissolved in 200 μl of 0.9% NaCl (Braun, Malaysia) and administered through the intra-peritoneal (i.p.) route for the in vivo toxicity study in mice. Intra-tail vein (i.t.v.) administration was done in the ECG monitoring study in rats. The various protein doses were dissolved in 200 μl of 0.9% NaCl solution and injected into the tail vein using a 27 G ½ needle (Becton Dickinson, Franklin Lakes, N.J.) held at an angle of about 10° to the tail. […]
After purification of the protein from snake venom, i.p. doses of 1 mg/kg, 10 mg/kg and 100 mg/kg were administered to healthy male mice (three animals per group) and the symptoms were observed and recorded. […]

In the case of α-bungarotoxin [reference compound], the symptoms is reported as “severe paralysis of the hind limbs”.
